The supplement of paper PMC9112550, “Optimization of the antimicrobial peptide Bac7 by deep mutational scanning” (BMC Biology, 2022)

System: Escherichia coli TOP10
Test: shrunken log2 fold change of peptide-encoding DNA abundance (4.5 h post-induction vs induction); higher = less antimicrobial activity (less host growth inhibition)
Details: time post-induction: 4.5 h; library: site-saturation at positions 5, 18, 19, 20
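Further: peptides expressed intracellularly from a pBAD plasmid library in pooled LB shake-flask culture, induced with 0.3% L-arabinose, DNA abundance read by NGS, three biological replicates, DESeq2 with apeglm shrinkage.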

Row | Sequence | shrunken log2 fold change
1 | RRIRERPPRLPRPRPRPQGYPRP | 0.0039
2 | RRIRNRPPRLPRPRPRPPCWPRP | 0.231
3 | RRIRERPPRLPRPRPRPVFCPRP | -0.0447
4 | RRIRKRPPRLPRPRPRPGKLPRP | -0.208
5 | RRIRGRPPRLPRPRPRPSRTPRP | 0.536
6 | RRIRRRPPRLPRPRPRPGLTPRP | 0.508
7 | RRIRRRPPRLPRPRPRPGSFPRP | 0.122
8 | RRIRARPPRLPRPRPRPPAWPRP | 0.621
9 | RRIRTRPPRLPRPRPRPCRLPRP | 0.0337
10 | RRIRFRPPRLPRPRPRPLSIPRP | -0.203
11 | RRIRRRPPRLPRPRPRPMGGPRP | 0.083
12 | RRIRHRPPRLPRPRPRPELFPRP | 0.458
13 | RRIRSRPPRLPRPRPRPITTPRP | -0.578
14 | RRIRGRPPRLPRPRPRPVGSPRP | 0.749
15 | RRIRSRPPRLPRPRPRPNTAPRP | -0.0399
16 | RRIRIRPPRLPRPRPRPIYQPRP | -0.00516
17 | RRIRRRPPRLPRPRPRPSRDPRP | 0.303
18 | RRIRKRPPRLPRPRPRPNKGPRP | 0.0232
19 | RRIRIRPPRLPRPRPRPRYIPRP | -0.242
20 | RRIRQRPPRLPRPRPRPWVEPRP | 0.0249
21 | RRIRSRPPRLPRPRPRPESRPRP | -0.0244
22 | RRIRPRPPRLPRPRPRPYLDPRP | -0.908
23 | RRIRGRPPRLPRPRPRPDPGPRP | 0.616
24 | RRIRPRPPRLPRPRPRPILQPRP | -0.224
25 | RRIRCRPPRLPRPRPRPKDVPRP | 0.015

Row | Sequence | shrunken log2 fold change
26 | RRIRQRPPRLPRPRPRPLNQPRP | -0.155
27 | RRIRWRPPRLPRPRPRPDEYPRP | -0.0763
28 | RRIRARPPRLPRPRPRPFCWPRP | 0.401
29 | RRIRQRPPRLPRPRPRPALDPRP | 0.296
30 | RRIRLRPPRLPRPRPRPQFKPRP | -0.501
31 | RRIRMRPPRLPRPRPRPMPEPRP | 0.627
32 | RRIRPRPPRLPRPRPRPFKCPRP | -0.214
33 | RRIRQRPPRLPRPRPRPVKNPRP | 0.142
34 | RRIRCRPPRLPRPRPRPMNHPRP | -0.658
35 | RRIRGRPPRLPRPRPRPPTRPRP | 1
36 | RRIRVRPPRLPRPRPRPSEKPRP | 0.268
37 | RRIRIRPPRLPRPRPRPQAMPRP | -0.0316
38 | RRIRARPPRLPRPRPRPDMRPRP | 0.737
39 | RRIRWRPPRLPRPRPRPQWKPRP | -0.17
40 | RRIRSRPPRLPRPRPRPWRIPRP | -0.0443
41 | RRIRYRPPRLPRPRPRPWLAPRP | 0.00503
42 | RRIRRRPPRLPRPRPRPNRYPRP | -0.365
43 | RRIRLRPPRLPRPRPRPWTDPRP | -0.279
44 | RRIRHRPPRLPRPRPRPGKNPRP | -0.0444
45 | RRIRERPPRLPRPRPRPGAPPRP | 0.301
46 | RRIRIRPPRLPRPRPRPGGVPRP | 0.0574
47 | RRIRVRPPRLPRPRPRPQIFPRP | -0.0538
48 | RRIRQRPPRLPRPRPRPMLAPRP | 0.0967
49 | RRIRARPPRLPRPRPRPPATPRP | 1.63
50 | RRIRPRPPRLPRPRPRPKITPRP | -0.105

Row | Sequence | shrunken log2 fold change
51 | RRIRFRPPRLPRPRPRPFRHPRP | 0.0504
52 | RRIRNRPPRLPRPRPRPRNVPRP | -0.3
53 | RRIRSRPPRLPRPRPRPMMMPRP | -0.83
54 | RRIRPRPPRLPRPRPRPDFMPRP | -0.309
55 | RRIRLRPPRLPRPRPRPFENPRP | -0.388
56 | RRIRIRPPRLPRPRPRPLTQPRP | -0.648
57 | RRIRERPPRLPRPRPRPGPTPRP | 0.215
58 | RRIRFRPPRLPRPRPRPLCRPRP | -0.406
59 | RRIRFRPPRLPRPRPRPNLEPRP | -0.257
60 | RRIRPRPPRLPRPRPRPTMPPRP | -0.144
61 | RRIRKRPPRLPRPRPRPTVVPRP | 1
62 | RRIRMRPPRLPRPRPRPVMRPRP | 0.305
63 | RRIRMRPPRLPRPRPRPFSSPRP | 0.0321
64 | RRIRDRPPRLPRPRPRPSTAPRP | 0.314
65 | RRIRGRPPRLPRPRPRPPKEPRP | 0.176
66 | RRIRSRPPRLPRPRPRPSVRPRP | -0.0911
67 | RRIRYRPPRLPRPRPRPCIVPRP | -0.246
68 | RRIRARPPRLPRPRPRPNVDPRP | 0.0662
69 | RRIRIRPPRLPRPRPRPAFAPRP | 0.207
70 | RRIRQRPPRLPRPRPRPFSKPRP | -0.218
71 | RRIRRRPPRLPRPRPRPATPPRP | 0.783
72 | RRIRQRPPRLPRPRPRPPEDPRP | 0.0255
73 | RRIRPRPPRLPRPRPRPRSSPRP | 0.151
74 | RRIRWRPPRLPRPRPRPFIRPRP | 0.0247
75 | RRIRWRPPRLPRPRPRPALCPRP | 0.331

Row | Sequence | shrunken log2 fold change
76 | RRIRHRPPRLPRPRPRPMKKPRP | -0.0202
77 | RRIRFRPPRLPRPRPRPQRNPRP | -0.323
78 | RRIRFRPPRLPRPRPRPAMYPRP | -0.246
79 | RRIRDRPPRLPRPRPRPHRWPRP | 0.00819
80 | RRIRVRPPRLPRPRPRPPWSPRP | 0.161
81 | RRIRWRPPRLPRPRPRPGFVPRP | 0.291
82 | RRIRVRPPRLPRPRPRPLQTPRP | 0.158
83 | RRIRKRPPRLPRPRPRPPREPRP | 0.689
84 | RRIRTRPPRLPRPRPRPRHEPRP | -0.13
85 | RRIRFRPPRLPRPRPRPYHLPRP | -0.643
86 | RRIRNRPPRLPRPRPRPDSNPRP | -0.0886
87 | RRIRMRPPRLPRPRPRPRHPPRP | 0.617
88 | RRIRKRPPRLPRPRPRPPYSPRP | -0.433
89 | RRIRRRPPRLPRPRPRPESEPRP | 0.0778
90 | RRIRYRPPRLPRPRPRPCSDPRP | -0.187
91 | RRIRVRPPRLPRPRPRPLATPRP | 0.309
92 | RRIRARPPRLPRPRPRPATNPRP | 0.317
93 | RRIRHRPPRLPRPRPRPFDIPRP | -0.212
94 | RRIRYRPPRLPRPRPRPGLTPRP | -0.21
95 | RRIRERPPRLPRPRPRPLPEPRP | 0.0716
96 | RRIRKRPPRLPRPRPRPFDTPRP | -0.0262
97 | RRIRWRPPRLPRPRPRPKHDPRP | 0.0868
98 | RRIRVRPPRLPRPRPRPHWQPRP | -0.024
99 | RRIRARPPRLPRPRPRPGGAPRP | 0.76
100 | RRIRTRPPRLPRPRPRPKECPRP | -0.503

Row | Sequence | shrunken log2 fold change
101 | RRIRNRPPRLPRPRPRPELFPRP | -0.0281
102 | RRIRRRPPRLPRPRPRPMDTPRP | 0.229
103 | RRIRIRPPRLPRPRPRPDGKPRP | -0.000921
104 | RRIRHRPPRLPRPRPRPECEPRP | 0.16
105 | RRIRHRPPRLPRPRPRPTTEPRP | -0.0115
106 | RRIRQRPPRLPRPRPRPPILPRP | -0.13
107 | RRIRYRPPRLPRPRPRPWPIPRP | 0.044
108 | RRIRMRPPRLPRPRPRPHVYPRP | -0.207
109 | RRIRSRPPRLPRPRPRPLWNPRP | -0.25
110 | RRIRFRPPRLPRPRPRPRHVPRP | -0.0276
111 | RRIRRRPPRLPRPRPRPACAPRP | 0.727
112 | RRIRDRPPRLPRPRPRPEMNPRP | 0.128
113 | RRIRWRPPRLPRPRPRPMNRPRP | -0.00448
114 | RRIRYRPPRLPRPRPRPQIQPRP | -0.473
115 | RRIRSRPPRLPRPRPRPNEPPRP | -0.0883
116 | RRIRIRPPRLPRPRPRPKPPPRP | 0.269
117 | RRIRDRPPRLPRPRPRPLGLPRP | 0.0955
118 | RRIRIRPPRLPRPRPRPYNMPRP | -1.39
119 | RRIRYRPPRLPRPRPRPEHRPRP | 0.0623
120 | RRIRSRPPRLPRPRPRPCKDPRP | -0.153
121 | RRIRYRPPRLPRPRPRPVCMPRP | -0.314
122 | RRIRERPPRLPRPRPRPQMAPRP | 0.00684
123 | RRIRIRPPRLPRPRPRPQTEPRP | -0.168
124 | RRIRNRPPRLPRPRPRPIFRPRP | -0.0067
125 | RRIRVRPPRLPRPRPRPLDYPRP | -0.244

Row | Sequence | shrunken log2 fold change
126 | RRIRYRPPRLPRPRPRPACGPRP | -0.145
127 | RRIRIRPPRLPRPRPRPDIKPRP | -0.576
128 | RRIRWRPPRLPRPRPRPLFWPRP | 0.373
129 | RRIRIRPPRLPRPRPRPYFWPRP | -0.388
130 | RRIRLRPPRLPRPRPRPYEDPRP | -0.125
131 | RRIRRRPPRLPRPRPRPCQHPRP | -0.153
132 | RRIRTRPPRLPRPRPRPTFNPRP | -0.199
133 | RRIRIRPPRLPRPRPRPRVWPRP | 0.618
134 | RRIRNRPPRLPRPRPRPTCMPRP | 0.0558
135 | RRIRFRPPRLPRPRPRPLSKPRP | 0.72
136 | RRIRYRPPRLPRPRPRPFSSPRP | 0.015
137 | RRIRFRPPRLPRPRPRPQHMPRP | -0.615
138 | RRIRIRPPRLPRPRPRPPECPRP | -0.17
139 | RRIRFRPPRLPRPRPRPWRKPRP | -0.0813
140 | RRIRSRPPRLPRPRPRPHDFPRP | -0.0847
141 | RRIRYRPPRLPRPRPRPYFPPRP | -0.702
142 | RRIRHRPPRLPRPRPRPPDEPRP | 0.43
143 | RRIRHRPPRLPRPRPRPWRIPRP | -0.0502
144 | RRIRQRPPRLPRPRPRPSYKPRP | -0.54
145 | RRIRARPPRLPRPRPRPWNEPRP | -0.19
146 | RRIRTRPPRLPRPRPRPPQFPRP | 0.11
147 | RRIRRRPPRLPRPRPRPAQQPRP | 0.938
148 | RRIRMRPPRLPRPRPRPKFDPRP | 0.217
149 | RRIRIRPPRLPRPRPRPDWKPRP | 0.036
150 | RRIRRRPPRLPRPRPRPPEHPRP | 0.14
